From publication PMC4972647 (Nature structural & molecular biology, 2016) come the findings set out here.

What all share (assay): BLI
For orientation: In BLI a coated tip is dipped into the sample, and binding shifts an interference pattern.

Test [1] has as its target N-terminal GST-tagged GlyRS (human).
Test [2] concerns the target NEDD8-conjugated Ubc12 (Ubc12(C111S)^N8-His) (human) (UniProt P61081).
The next test addresses T1, GST-APPBP1 (human, UniProt Q13564 1-534).
T1 sequence: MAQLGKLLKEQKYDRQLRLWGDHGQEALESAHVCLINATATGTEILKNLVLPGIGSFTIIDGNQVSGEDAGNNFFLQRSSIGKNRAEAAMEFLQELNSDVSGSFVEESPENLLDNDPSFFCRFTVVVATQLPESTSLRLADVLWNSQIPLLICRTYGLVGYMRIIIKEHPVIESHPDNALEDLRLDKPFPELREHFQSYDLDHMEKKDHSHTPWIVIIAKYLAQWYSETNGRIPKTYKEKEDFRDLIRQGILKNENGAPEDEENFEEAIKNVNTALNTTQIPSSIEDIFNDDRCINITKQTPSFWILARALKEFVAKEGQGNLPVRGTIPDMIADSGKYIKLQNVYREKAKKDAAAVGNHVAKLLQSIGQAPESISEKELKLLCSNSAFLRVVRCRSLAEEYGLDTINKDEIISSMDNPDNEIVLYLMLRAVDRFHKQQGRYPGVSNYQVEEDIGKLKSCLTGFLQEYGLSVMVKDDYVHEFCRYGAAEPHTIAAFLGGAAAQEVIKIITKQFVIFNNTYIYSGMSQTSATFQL

In turn, “NEDD8-conjugated Ubc12 (Ubc12(C111S)^N8-His) (from UniProt P61081;Q15843) (complex)” gave a Kd in test [1] of 4.09 nM.
For the molecule G526R GlyRS (enzyme), in test [2], the Kd was 39.5 nM.
The same measure, in the same setting: the result for Tag-free wild type human GlyRS (enzyme) reads 3.21 nM.
The same measure, in the same setting: in the case of “ΔInsertion1 GlyRS (F147-F224 replaced by GSGSGG) (from UniProt P41250-2 225-685) (enzyme)” it was 4.32 nM.
On to “purified recombinant human Ubc12 (from UniProt P61081 1-183) (enzyme)”, for which the Kd in test [1] is 488 nM.
On the same count and under the same terms, in the case of “purified recombinant human NEDD8 (from UniProt Q15843 1-76) (natural protein)” it was 126 nM.
On to “Δ84-93 GlyRS (F84-L93 replaced by GGG) (from UniProt P41250-2 94-685) (enzyme)”, for which the equilibrium dissociation constant (Kd) in test [2] came out at 27 nM.

B1: ABD (V541-E685) of human GlyRS (domain or fragment)
chain: VREGDEQRTFFSFPAVVAPFKCSVLPLSQNQEFMPFVKELSEALTRHGVSHKVDDSSGSIGRRYARTDEIGVAFGVTIDFDTVNKTPHTATLRDRDSMRQIRAEISELPSIVQDLANGNITWADVEARYPLFEGQETGKKETIEE
B1: the binding result with GST-APPBP1 is recorded as “binds”.

The Kd is the equilibrium constant for the complex coming apart. A lower Kd goes with higher affinity.
